Here are results for 18 molecules from US20240294593A1 (Genentech, published 2024).

The labels stand for the following.
B1: H1.79_L1 (antibody, V domains shown)
VH: EVQLVESGGGLVQPGGSLRLSCAASGFTFSSFGMHWVRQAPGKGLEWVSYISSGSYIIYYADSVKGRFTISRDNAKNSLYLQMNSLRAEDTAVYYCARGGRLVWSPDYWGQGTLVTVSS
VL: DIVMTQSPDSLAVSLGERATINCKSSQSLLNSGNQKNYLTWYQQKPGQPPKLLIYWASTRESGVPDRFTGSGSGTDFTLTISSLQAEDVAVYYCQNDYSYPFTFGSGTKLEIKR
notes: also called VH-S60Y; Kabat 55
B2: H1.164_L1 (antibody, V domains shown)
VH: EVQLVESGGGLVQPGGSLRLSCAASGFTFSSFGMHWVRQAPGKGLEWVSYISSGSSIIYYADSVKGRFTISRDNAKNSLYLQMNSLRAEDTAVYYCARGGRLVWVPDYWGQGTLVTVSS
VL: DIVMTQSPDSLAVSLGERATINCKSSQSLLNSGNQKNYLTWYQQKPGQPPKLLIYWASTRESGVPDRFTGSGSGTDFTLTISSLQAEDVAVYYCQNDYSYPFTFGSGTKLEIKR
notes: also called VH-S113V; Kabat 100a
B3: H1_L1.14 (antibody, V domains shown)
VH: EVQLVESGGGLVQPGGSLRLSCAASGFTFSSFGMHWVRQAPGKGLEWVSYISSGSSIIYYADSVKGRFTISRDNAKNSLYLQMNSLRAEDTAVYYCARGGRLVWSPDYWGQGTLVTVSS
VL: DIVMTQSPDSLAVSLGERATINCKSSQSLLNKGNQKNYLTWYQQKPGQPPKLLIYWASTRESGVPDRFTGSGSGTDFTLTISSLQAEDVAVYYCQNDYSYPFTFGSGTKLEIKR
notes: also called VL-S32K; Kabat 27e
B4: H1_L1.10 (antibody, V domains shown)
VH: EVQLVESGGGLVQPGGSLRLSCAASGFTFSSFGMHWVRQAPGKGLEWVSYISSGSSIIYYADSVKGRFTISRDNAKNSLYLQMNSLRAEDTAVYYCARGGRLVWSPDYWGQGTLVTVSS
VL: DIVMTQSPDSLAVSLGERATINCKSSQSLLNAGNQKNYLTWYQQKPGQPPKLLIYWASTRESGVPDRFTGSGSGTDFTLTISSLQAEDVAVYYCQNDYSYPFTFGSGTKLEIKR
notes: also called VL-S32A; Kabat 27e
B5: H1_L1.6 (antibody, V domains shown)
VH: EVQLVESGGGLVQPGGSLRLSCAASGFTFSSFGMHWVRQAPGKGLEWVSYISSGSSIIYYADSVKGRFTISRDNAKNSLYLQMNSLRAEDTAVYYCARGGRLVWSPDYWGQGTLVTVSS
VL: DIVMTQSPDSLAVSLGERATINCKSSQSLLTSGNQKNYLTWYQQKPGQPPKLLIYWASTRESGVPDRFTGSGSGTDFTLTISSLQAEDVAVYYCQNDYSYPFTFGSGTKLEIKR
notes: also called VL-N31T; Kabat 27d
B6: H1_L1.12 (antibody, V domains shown)
VH: EVQLVESGGGLVQPGGSLRLSCAASGFTFSSFGMHWVRQAPGKGLEWVSYISSGSSIIYYADSVKGRFTISRDNAKNSLYLQMNSLRAEDTAVYYCARGGRLVWSPDYWGQGTLVTVSS
VL: DIVMTQSPDSLAVSLGERATINCKSSQSLLNVGNQKNYLTWYQQKPGQPPKLLIYWASTRESGVPDRFTGSGSGTDFTLTISSLQAEDVAVYYCQNDYSYPFTFGSGTKLEIKR
notes: also called VL-S32V; Kabat 27e
B7: H1.158_L1 (antibody, V domains shown)
VH: EVQLVESGGGLVQPGGSLRLSCAASGFTFSSFGMHWVRQAPGKGLEWVSYISSGSSIIYYADSVKGRFTISRDNAKNSLYLQMNSLRAEDTAVYYCARGGRLVESPDYWGQGTLVTVSS
VL: DIVMTQSPDSLAVSLGERATINCKSSQSLLNSGNQKNYLTWYQQKPGQPPKLLIYWASTRESGVPDRFTGSGSGTDFTLTISSLQAEDVAVYYCQNDYSYPFTFGSGTKLEIKR
notes: also called VH-W112E; Kabat 100; copies: 2 + 2
B8: H1.163_L1 (antibody, V domains shown)
VH: EVQLVESGGGLVQPGGSLRLSCAASGFTFSSFGMHWVRQAPGKGLEWVSYISSGSSIIYYADSVKGRFTISRDNAKNSLYLQMNSLRAEDTAVYYCARGGRLVWGPDYWGQGTLVTVSS
VL: DIVMTQSPDSLAVSLGERATINCKSSQSLLNSGNQKNYLTWYQQKPGQPPKLLIYWASTRESGVPDRFTGSGSGTDFTLTISSLQAEDVAVYYCQNDYSYPFTFGSGTKLEIKR
notes: also called VH-S113G; Kabat 100a
B9: H1.161_L1 (antibody, V domains shown)
VH: EVQLVESGGGLVQPGGSLRLSCAASGFTFSSFGMHWVRQAPGKGLEWVSYISSGSSIIYYADSVKGRFTISRDNAKNSLYLQMNSLRAEDTAVYYCARGGRLVWAPDYWGQGTLVTVSS
VL: DIVMTQSPDSLAVSLGERATINCKSSQSLLNSGNQKNYLTWYQQKPGQPPKLLIYWASTRESGVPDRFTGSGSGTDFTLTISSLQAEDVAVYYCQNDYSYPFTFGSGTKLEIKR
notes: also called VH-S113A; Kabat 100a
B10: H1_L1.5 (antibody, V domains shown)
VH: EVQLVESGGGLVQPGGSLRLSCAASGFTFSSFGMHWVRQAPGKGLEWVSYISSGSSIIYYADSVKGRFTISRDNAKNSLYLQMNSLRAEDTAVYYCARGGRLVWSPDYWGQGTLVTVSS
VL: DIVMTQSPDSLAVSLGERATINCKSSQSLLLSGNQKNYLTWYQQKPGQPPKLLIYWASTRESGVPDRFTGSGSGTDFTLTISSLQAEDVAVYYCQNDYSYPFTFGSGTKLEIKR
notes: also called VL-N31L; Kabat 27d
B11: H1_L1.8 (antibody, V domains shown)
VH: EVQLVESGGGLVQPGGSLRLSCAASGFTFSSFGMHWVRQAPGKGLEWVSYISSGSSIIYYADSVKGRFTISRDNAKNSLYLQMNSLRAEDTAVYYCARGGRLVWSPDYWGQGTLVTVSS
VL: DIVMTQSPDSLAVSLGERATINCKSSQSLLYSGNQKNYLTWYQQKPGQPPKLLIYWASTRESGVPDRFTGSGSGTDFTLTISSLQAEDVAVYYCQNDYSYPFTFGSGTKLEIKR
notes: also called VL-N31Y; Kabat 27d
B12: H1.166_L1 (antibody, V domains shown)
VH: EVQLVESGGGLVQPGGSLRLSCAASGFTFSSFGMHWVRQAPGKGLEWVSYISSGSSIIYYADSVKGRFTISRDNAKNSLYLQMNSLRAEDTAVYYCARGGRLVWDPDYWGQGTLVTVSS
VL: DIVMTQSPDSLAVSLGERATINCKSSQSLLNSGNQKNYLTWYQQKPGQPPKLLIYWASTRESGVPDRFTGSGSGTDFTLTISSLQAEDVAVYYCQNDYSYPFTFGSGTKLEIKR
notes: also called VH-S113D; Kabat 100a
B13: H1_L1.7 (antibody, V domains shown)
VH: EVQLVESGGGLVQPGGSLRLSCAASGFTFSSFGMHWVRQAPGKGLEWVSYISSGSSIIYYADSVKGRFTISRDNAKNSLYLQMNSLRAEDTAVYYCARGGRLVWSPDYWGQGTLVTVSS
VL: DIVMTQSPDSLAVSLGERATINCKSSQSLLGSGNQKNYLTWYQQKPGQPPKLLIYWASTRESGVPDRFTGSGSGTDFTLTISSLQAEDVAVYYCQNDYSYPFTFGSGTKLEIKR
notes: also called VL-N31G; Kabat 27d
B14: H1_L1.9 (antibody, V domains shown)
VH: EVQLVESGGGLVQPGGSLRLSCAASGFTFSSFGMHWVRQAPGKGLEWVSYISSGSSIIYYADSVKGRFTISRDNAKNSLYLQMNSLRAEDTAVYYCARGGRLVWSPDYWGQGTLVTVSS
VL: DIVMTQSPDSLAVSLGERATINCKSSQSLLNTGNQKNYLTWYQQKPGQPPKLLIYWASTRESGVPDRFTGSGSGTDFTLTISSLQAEDVAVYYCQNDYSYPFTFGSGTKLEIKR
notes: also called VL-S32T; Kabat 27e
B15: H1_L1.11 (antibody, V domains shown)
VH: EVQLVESGGGLVQPGGSLRLSCAASGFTFSSFGMHWVRQAPGKGLEWVSYISSGSSIIYYADSVKGRFTISRDNAKNSLYLQMNSLRAEDTAVYYCARGGRLVWSPDYWGQGTLVTVSS
VL: DIVMTQSPDSLAVSLGERATINCKSSQSLLNQGNQKNYLTWYQQKPGQPPKLLIYWASTRESGVPDRFTGSGSGTDFTLTISSLQAEDVAVYYCQNDYSYPFTFGSGTKLEIKR
notes: also called VL-S32Q; Kabat 27e
B16: H1.160_L1 (antibody, V domains shown)
VH: EVQLVESGGGLVQPGGSLRLSCAASGFTFSSFGMHWVRQAPGKGLEWVSYISSGSSIIYYADSVKGRFTISRDNAKNSLYLQMNSLRAEDTAVYYCARGGRLVWTPDYWGQGTLVTVSS
VL: DIVMTQSPDSLAVSLGERATINCKSSQSLLNSGNQKNYLTWYQQKPGQPPKLLIYWASTRESGVPDRFTGSGSGTDFTLTISSLQAEDVAVYYCQNDYSYPFTFGSGTKLEIKR
notes: also called VH-S113T; Kabat 100a
B17: H1_L1.13 (antibody, V domains shown)
VH: EVQLVESGGGLVQPGGSLRLSCAASGFTFSSFGMHWVRQAPGKGLEWVSYISSGSSIIYYADSVKGRFTISRDNAKNSLYLQMNSLRAEDTAVYYCARGGRLVWSPDYWGQGTLVTVSS
VL: DIVMTQSPDSLAVSLGERATINCKSSQSLLNHGNQKNYLTWYQQKPGQPPKLLIYWASTRESGVPDRFTGSGSGTDFTLTISSLQAEDVAVYYCQNDYSYPFTFGSGTKLEIKR
notes: also called VL-S32H; Kabat 27e
B18: H1_L1.2 (antibody, V domains shown)
VH: EVQLVESGGGLVQPGGSLRLSCAASGFTFSSFGMHWVRQAPGKGLEWVSYISSGSSIIYYADSVKGRFTISRDNAKNSLYLQMNSLRAEDTAVYYCARGGRLVWSPDYWGQGTLVTVSS
VL: DIVMTQSPDSLAVSLGERATINCKSSQSLLESGNQKNYLTWYQQKPGQPPKLLIYWASTRESGVPDRFTGSGSGTDFTLTISSLQAEDVAVYYCQNDYSYPFTFGSGTKLEIKR
notes: also called VL-N31E; Kabat 27d

T1 sequence (Q15116 25-167 limits assumed): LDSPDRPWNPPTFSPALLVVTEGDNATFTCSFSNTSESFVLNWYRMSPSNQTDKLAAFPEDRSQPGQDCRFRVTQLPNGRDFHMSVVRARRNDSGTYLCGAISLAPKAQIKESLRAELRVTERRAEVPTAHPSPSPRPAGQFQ

One test concerns the target T1, human PD-1-His (human, UniProt Q15116 25-167, limits assumed).
T1 construct: Antigen of the Octet assays; not shown: His tag
Briefly: Octet.
B1: the Kd came to 43.4 nM, the koff came out at 0.00686 s⁻¹ and the on-rate (kon) was 158000 M⁻¹ s⁻¹.

Another test has as its target T1, human PD-1-His. Briefly: Octet. This is another data set of the same source.
B2 gave a dissociation constant (Kd) of 280 nM, a koff of 0.0166 s⁻¹ and an association rate constant (kon) of 59400 M⁻¹ s⁻¹.

In the case of B3, the dissociation constant Kd is 170 nM, the koff was 0.0141 s⁻¹ and the kon stood at 83200 M⁻¹ s⁻¹.

In turn, B4 showed a Kd of 82.9 nM, a koff of 0.00755 s⁻¹ and a kon of 91000 M⁻¹ s⁻¹.

B5 had a Kd of 64.6 nM, a koff of 0.00777 s⁻¹ and a kon of 120000 M⁻¹ s⁻¹.

Take B6: the Kd amounted to 111 nM, the off-rate (koff) worked out at 0.0115 s⁻¹ and the kon came to 104000 M⁻¹ s⁻¹.

On to B7, for which the binding result is “no binding”.

In the case of B8, the equilibrium dissociation constant (Kd) amounted to 92 nM, the koff was found to be 0.0113 s⁻¹ and the association rate constant (kon) came out at 123000 M⁻¹ s⁻¹.

Regarding B9, binding was characterised by a dissociation constant (Kd) of 47.5 nM, the koff amounted to 0.00755 s⁻¹ and the on-rate (kon) came out at 159000 M⁻¹ s⁻¹.

B10: the equilibrium dissociation constant (Kd) stood at 32.9 nM, the koff worked out at 0.00569 s⁻¹ and the kon was determined as 173000 M⁻¹ s⁻¹.

Turning to B11, the dissociation constant Kd came out at 307 nM, the dissociation rate constant (koff) was found to be 0.0247 s⁻¹ and the on-rate constant (kon) is 80600 M⁻¹ s⁻¹.

B12: the Kd was determined as 189 nM, the koff turned out to be 0.0457 s⁻¹ and the on-rate constant (kon) amounted to 242000 M⁻¹ s⁻¹.

With B13, binding was put at a Kd of 84.6 nM, the koff is 0.00875 s⁻¹ and the kon was determined as 103000 M⁻¹ s⁻¹.

As for B14, the dissociation constant Kd worked out at 46.7 nM, the koff was 0.005 s⁻¹ and the kon was determined as 107000 M⁻¹ s⁻¹.

The molecule B15 gave a dissociation constant (Kd) of 103 nM, a koff of 0.00997 s⁻¹ and a kon of 96500 M⁻¹ s⁻¹.

For B16, binding was put at a Kd of 90.7 nM, the koff stood at 0.00764 s⁻¹ and the on-rate (kon) was 84300 M⁻¹ s⁻¹.

In turn, B17 yielded a Kd of 103 nM, an off-rate constant (koff) of 0.0106 s⁻¹ and a kon of 102000 M⁻¹ s⁻¹.

In turn, B18 yielded a Kd of 152 nM, a koff of 0.0228 s⁻¹ and a kon of 150000 M⁻¹ s⁻¹.
